# Measurements as given in the supplement of paper PMC10567573.
# ± gives the standard deviation.
# Assay: protein stability index of a GFP-peptide fusion (GPS, HEK-293T) (PSI 1-6); higher = more stable
# Conditions: c terminus: a fixed tail appended
# 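Also: 24-mer peptide tiles fused after GFP, lentivirally expressed, FACS-sorted into six equal bins by GFP/DsRed ratio, decoded by Illumina sequencing, PSI is the read-weighted mean bin number.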
Sequence,protein stability index (treatment: DMSO),"protein stability index (treatment: MLN4924 1 uM, 8 h)"
KRKTFNKVLGHVNNILISAVLPTA [GDAP1],2.49 ± 0.14,2.42 ± 0.076
KRTAQAIEPYITNFFNQVLMLGKT [PDS5B],1.95 ± 0.24,2.29 ± 0.085
KSKHAPRGTHLWEFIRDILIHPEL [ELF3],2.6 ± 0.75,2.26 ± 0.36
KSSILTRAGEQRKRSQSMKSYPSS [CLCN6],4.46 ± 0.25,4.6 ± 0.18
LALGPGESLPHRLSCLGQQQQEPP [PLAGL1],4.145 ± 0.038,4.23 ± 0.15
LALKLPDGSYALNGEYTLMPSPTD [ADAMTS4],2.35 ± 0.15,2.41 ± 0.28
LAQQLCTALLFLATPELSIIHCDL [DYRK1B],3.04 ± 0.42,3.23 ± 0.42
LASLQDGAAESPYGHPAGIDYKTT [RAB40B],4.4 ± 0.31,4.39 ± 0.15
LATFSSDWEIQEDSRLMCSSVQKA [CCDC3],4 ± 0.44,3.9 ± 0.29
LCGENFSHRSNLIRHQRIHTGEKP [ZNF263],3.91 ± 0.17,3.72 ± 0.22
LCSFLLLLLLQVSSSYAGQFRVIG [MOG],3.39 ± 0.38,3.29 ± 0.29
LCSRQDLYPALKGVNTVFHCASPP [NSDHL],2.66 ± 0.32,2.79 ± 0.25
LDFCDFTAEMARVLTDSNHVPLQR [FBXO33],3.07 ± 0.46,3.26 ± 0.34
LDFKDLLESEDWEEDNWDPELMEH [TEX19],4.86 ± 0.091,4.94 ± 0.26
LDGAGLMGFVPHNGSLYGQASSER [ADAMTSL2],4.32 ± 0.67,3.58 ± 0.95
LDGKKKGVEPSPSPIKPGDIKRGI [UFD1],4.92 ± 0.24,4.92 ± 0.25
LDLFAMKPPETSVPVVTPTASTAP [SNAP91],4.25 ± 0.28,4.48 ± 0.22
LDVFGRGDNISDVSKFLEDDKWME [LUC7L3],4.72 ± 0.27,4.37 ± 0.14
LDVIERDLHRQFPFHEMFVSRGGH [TBC1D10A],2.98 ± 0.3,2.86 ± 0.21
LEASNYQMMPYMQPVMQSDRTAIR [KLHL13],3.9 ± 0.38,4.17 ± 0.25
LEEMILPLMVASAQSGERECHIVV [BTBD10],2.35 ± 0.79,2.48 ± 0.48
LEGSHDTANCEACTLGICGQGLKS [RTP4],5.13 ± 0.25,5.11 ± 0.12

Sequence,protein stability index (treatment: DMSO),"protein stability index (treatment: MLN4924 1 uM, 8 h)"
LEKEREKEISDDEAEEEKGEKEEE [HSP90AB1],5.66 ± 0.34,5.74 ± 0.21
LERKCEKRSVYIDARDEELEKDTM [ZC3H15],4.93 ± 0.49,4.9 ± 0.075
LGALKPLPACEFEMGGSEGIVESI [NETO1],4.28 ± 0.2,4.31 ± 0.25
LGFGSAKEAVTGSRLGQGIGPIHL [LOXL2],2.7 ± 0.26,2.64 ± 0.073
LGSIFQQLAHMVKEQEETIQRIDE [STX5],4.48 ± 0.2,4.26 ± 0.098
LGSPQHSPSTRGSPNRSLPSPGVL [ATF4],4.45 ± 0.23,4.45 ± 0.22
LGVAVAVLGGFLYAVGGSDGTSPL [KLHL20],2.86 ± 0.64,2.85 ± 0.51
LGWGPTALRDVPFSALYWFNYELV [SLC25A39],2.9 ± 0.54,2.61 ± 0.41
LHTDVGSVRMRRAEKSVAPSNTGS [NEK8],4.58 ± 0.22,4.73 ± 0.14
LIDHLALRARNYEYLIRLFQEWEA [TCF25],2.1 ± 0.27,2.43 ± 0.36
LIKFQVGLKKLNLHEEEHVLLMAI [VDR],2.8 ± 0.62,2.73 ± 0.78
LIKNNSLPRKRQSLRSSSSKLAQL [INTS3],2.99 ± 0.27,3.31 ± 0.17
LIYMVTIMGNLLIIVTIMASQSLG [OR4A15],3.18 ± 0.43,3.1 ± 0.29
LKAHAEEKPPSGTKEKKHQCDHCE [PLAGL1],5.38 ± 0.22,5.46 ± 0.098
LKELQAIAERLGCTLPQLAIAWCL [KCNAB2],2.29 ± 0.74,2.27 ± 0.25
LLDFMCRIIPNFYPPLEGHVRQGV [INTS3],3.31 ± 0.42,2.84 ± 0.41
LLDKTCDQVMEFSWSALWNITDET [ZER1],2.37 ± 0.28,2.35 ± 0.34
LLFKLVAPVTFRHHRYDDLVRTLY [CPN1],2.65 ± 0.63,2.83 ± 0.56
LLKTPWRAASAMQFFTKGYQETIS [GCH1],2.19 ± 0.28,2.44 ± 0.18
LLLVAKMSVGHLRLLSHDQVAMPY [JAGN1],3.06 ± 0.46,2.81 ± 0.21
LLNQQSLKRSANQMGVSAKRRPKA [MED27],3.47 ± 0.3,3.82 ± 0.24
LLPDQARGEVPWSPELGRPHDRSQ [ZNF263],4.58 ± 0.17,4.86 ± 0.091
